Measurements reported in patent US5935824A, “Protein expression system” (Technologene, Inc., priority 1996, dated 1999).

Substrate: C[C@H](NC(=O)[C@H](Cc1ccccc1)NC(=O)OCc1ccccc1)C(=O)O
Test: Flow digestion of N-CBZ-peptides through CPD-Y Acti Disk, ninhydrin assays
Format: biochemical, yeast
Conditions: other: free enzyme; calculated from Sigma specific activity
Procedure: The reported Km values for CPD-Y have been generated using extremely low enzyme concentration compared to substrate concentration. The value for Km represents the concentration of substrate that will produce 1/2 the maximum velocity for the initial reaction rates. During the testing of the immobilized CPD-Y enzyme disks with various dipeptide substrates, the maximum flow rate that can be achieved without any substantial increase in the pressure of the solution, is 4 ml/min. At this flow rate, the substrate remains within the immobilized enzyme matrix for 1.74 seconds. This value is determined by dividing the internal porous volume of the matrix to which the enzyme is immobilized (115 μL/4000 μL, min^-1). […]
Standard ninhydrin assay: Hydrolysis of the non-proline containing N-CBZ-dipeptides was determined by assaying the amount of free amino acid released by a colorometric ninhydrin reaction at a pH greater than 5.2. […] Samples were then cooled to room temperature and 600 μl of 60% ethanol was added as the diluent and the absorbance was read at 570 nm on a Beckman DU 7000 spectrophotometer.
Proline ninhydrin assay: Hydrolysis of proline-containing N-CBZ-dipeptides were measured with a modified version of the assay described by Magne and Larher [Anal. Biochem., 200:115 (1982)]. […]

B1: carboxypeptidase Y (CPD-Y) immobilized to Acti-Disk (Saccharomyces cerevisiae S288C) (protein)
chain: KIKDPKILGIDPNVTQYTGYLDVEDEDKHFFFWTFESRNDPAKDPVILWLNGGPGCSSLTGLFFELGPSSIGPDLKPIGNPYSWNSNATVIFLDQPVNVGFSYSGSSGVSNTVAAGKDVYNFLELFFDQFPEYVNKGQDFHIAGESYAGHYIPVFASEILSHKDRNFNLTSVLIGNGLTDPLTQYNYYEPMACGEGGEPSVLPSEECSAMEDSLERCLGLIESCYDSQSVWSCVPATIYCNNAQLAPYQRTGRNVYDIRKDCEGGNLCYPTLQDIDDYLNQDYVKEAVGAEVDHYESCNFDINRNFLFAGDWMKPYHTAVTDLLNQDLPILVYAGDKDFICNWLGNKAWTDVLPWKYDEEFASQKVRNWTASITDEVAGEVKSYKHFTYLRVFNGGHMVPFDVPENALSMVNEWIHGGFSL
notes: purchased Sigma
  kcat: 103.3 s⁻¹
